Our source for the Viability values is US7989588B2, “Cell permeable peptide” (Osaka University, priority 2005, dated 2011).

The data set concerns A431 cells. Put plainly: Evaluation of intracellular transfer ability of peptide (cytotoxicity test by PSIF; MTT assay). Type of data set: cell-based, human. The conditions noted are these: 5 μL culture supernatant containing fusion body of peptide and PSIF, cycloheximide 10 μg/mL, 24 hours, viability of TAT peptide (Tat 48-60)-PSIF group taken as 100%. The procedure: Subsequently, using a fusion body of the peptide and PSIF (protein synthesis inhibitory factor) obtained by recombining each library gene in a PSIF-expressing vector, the intracellular transfer activity of the peptide was evaluated using the cytotoxicity by PSIF as an indicator. […] The screening was performed using a supernatant of the culture of Escherichia coli producing the fusion body of the peptide and PSIF. As a result, it can be confirmed that the clone having the ability to penetrate into the cell is selectively enriched as the panning is repeated. It was successful to yield many clones having a higher introduction efficiency than TAT peptide currently described to be the most excellent in introduction efficiency.
The plasmids collected from the library (input) made and the libraries after the 2nd, 3rd and 4th panning were treated with NcoI (Toyobo Co., Ltd.) and NotI. A plasmid expressing the fusion body of the peptide and PSIF was constructed by incorporating the treated plasmid into PSIF expression vector pY7 (PSIF expression codons had been incorporated into pCantab5e) previously treated with NcoI and NotI using a ligation kit (Takara Shuzo Co., Ltd.). […]; A04646) or Pseudomonas microbial cell exotoxin (GenBank; K01397) (FIG. 6) was utilized.
The plasmid expressing the fusion body of the peptide and PSIF was introduced into TG1 by electroporation, and resulting colonies were randomly picked up into a 96-well plate (NUNC™) and cultured overnight. To a plate in which 100 μL of the 2YT medium containing 50 μg/mL of ampicillin and 2% glucose was newly added, 10 μL of the culture medium cultured overnight was added and cultured until OD600=0.4 to 0.5. The culture was centrifuged at 3,000 rpm for 20 minutes, the supernatant was removed, and 200 μL of the 2YT medium containing 1 mM IPTG (Sigma Aldrich Inc.) and 50 μg/mL of ampicillin was added to the plate, which was then cultured at 37° C. for 12 hours. The culture was centrifuged again at 3,000 rpm for 20 minutes, and the resulting supernatant was subjected to the following screening.
A431 cells diluted at 1.0×10^4 cells/well with Opti-MEM (Invitrogen™ life technologies) were seeded in a 96-well plate, and cycloheximide (Wako Pure Chemical Industries Ltd.) at a final concentration of 10 μg/mL was added thereto. Then, 5 μL of the culture supernatant made according to the above method was added, and the cells were cultured at 37° C. under the saturated vapor pressure and 5% carbon dioxide gas phase for 24 hours. Subsequently, 10 μL/well of 5 mg/mL of MTT (Wako Pure Chemical Industries Ltd.) solution was added, and further cultured at 37° C. for 4 hours. Then, 100 μL/well of 20% SDS (Wako Pure Chemical Industries Ltd., Osaka, Japan)/0.01 N HCl was added and the plate was left stand in a dark place for 4 hours. The intracellular transfer ability of the peptide was evaluated using the cytotoxicity by PSIF introduced into the cells by the peptide as the indicator by measuring absorbance using a microplate reader (Test wave length: 595 nm/Reference wave length: 655 nm). Viability was calculated by making the viability in the group treated with the culture supernatant containing the fusion body of the TAT peptide (Tat 48-60) and PSIF 100%.

Regarding “GTSRANSYDNLKSETLTQ [SEQ ID NO 16, cell permeable peptide, tested as fusion body with PSIF]”, the Viability result was “about 15%”.

For “SGEHTNGPSKTSVRWVWD [SEQ ID NO 6, cell permeable peptide, tested as fusion body with PSIF]”, the Viability entry was “about 35%”.

As for “GLFNWLQLRPPSW [SEQ ID NO 2, cell permeable peptide, tested as fusion body with PSIF]”, the Viability result is recorded as “about 80%”.

On to “MSDPNMNPGTLGSSHILW [SEQ ID NO 10, cell permeable peptide, tested as fusion body with PSIF]”, for which the Viability entry is “about 30%”.

Take “GILLRNQVLPPQI [SEQ ID NO 3, cell permeable peptide, tested as fusion body with PSIF]”: the Viability entry was “about 65%”.

As to “SPGNQSTGVIGTPSFSNH [SEQ ID NO 11, cell permeable peptide, tested as fusion body with PSIF]”, the Viability entry is “about 45%”.

“RRRRNRTRRNRRRVR [SEQ ID NO 4, cell permeable peptide, tested as fusion body with PSIF]”: the Viability entry is recorded as “about 93%”.

“GIASNGQLPTPKT [SEQ ID NO 5, cell permeable peptide, tested as fusion body with PSIF]”: the Viability entry was “about 35%”.

As for “SSGANYFFNAIYDFLSNF [SEQ ID NO 15, cell permeable peptide, tested as fusion body with PSIF]”, the Viability entry is reported as “about 35%”.

On to “GSNFFYQHRLPFS [SEQ ID NO 1, cell permeable peptide, tested as fusion body with PSIF]”, for which the Viability entry is “about 45%”.

For “SPTRPTHQGLLPVSNKYT [SEQ ID NO 13, cell permeable peptide, tested as fusion body with PSIF]”, the Viability result was “about 77%”.

Regarding “STHLQYHVNYTSRTVVSM [SEQ ID NO 8, cell permeable peptide, tested as fusion body with PSIF]”, the Viability entry is listed as “about 60%”.

Take “QDGGTWHLVAYCAKSHRY [SEQ ID NO 9, cell permeable peptide, tested as fusion body with PSIF]”: the Viability result is recorded as “about 45%”.

In the case of “STAPGSLQEDILDSVPA [SEQ ID NO 12, cell permeable peptide, tested as fusion body with PSIF]”, the Viability result was “about 85%”.

Regarding “YSSAYEWFNRYKQPYYEL [SEQ ID NO 14, cell permeable peptide, tested as fusion body with PSIF]”, the Viability entry is given as “about 65%”.

Turning to “SMTTMEFGHSMITPYKID [SEQ ID NO 7, cell permeable peptide, tested as fusion body with PSIF]”, the Viability result is given as “about 45%”.

As to “GRKKRRQRRRPPQ [SEQ ID NO 17, TAT peptide (Tat 48-60) derived from HIV Tat protein, reference compound]”, the Viability came to 100%.
